Molecular target: CC12.1 (human)
Test: SPR

CC12.1 (human), sequence (heavy, as listed by the source, chain 1 of 2): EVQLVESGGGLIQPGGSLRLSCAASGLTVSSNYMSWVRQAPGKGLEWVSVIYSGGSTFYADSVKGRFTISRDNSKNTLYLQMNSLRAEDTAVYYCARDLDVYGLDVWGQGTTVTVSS
CC12.1 (human), sequence (light, as listed by the source, chain 2 of 2): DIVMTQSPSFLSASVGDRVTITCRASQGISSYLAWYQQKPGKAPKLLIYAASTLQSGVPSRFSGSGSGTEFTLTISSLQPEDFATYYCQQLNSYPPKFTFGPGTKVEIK

SARS-CoV-2 RBD Alpha (B.1.1.7) (from UniProt P0DTC2) (domain or fragment)
Kd: 14.4 nM
